Assay results taken from patent US7067474B1, “Agents for treating human illnesses based on β-catenin, and the production and use thereof” (Max-Delbruck-Centrum fur Molekulare Medizin, priority 1998, dated 2006).

Key:
Test in all cases: yeast 2-hybrid; - means 60-100% of the wild type interaction
[1] = biological target: T1, human β-catenin (Leu218-Leu781) mutant Lys 435 to alanine, Gal-4 activation domain fusion (human, UniProt P35222 218-781)
T1 sequence: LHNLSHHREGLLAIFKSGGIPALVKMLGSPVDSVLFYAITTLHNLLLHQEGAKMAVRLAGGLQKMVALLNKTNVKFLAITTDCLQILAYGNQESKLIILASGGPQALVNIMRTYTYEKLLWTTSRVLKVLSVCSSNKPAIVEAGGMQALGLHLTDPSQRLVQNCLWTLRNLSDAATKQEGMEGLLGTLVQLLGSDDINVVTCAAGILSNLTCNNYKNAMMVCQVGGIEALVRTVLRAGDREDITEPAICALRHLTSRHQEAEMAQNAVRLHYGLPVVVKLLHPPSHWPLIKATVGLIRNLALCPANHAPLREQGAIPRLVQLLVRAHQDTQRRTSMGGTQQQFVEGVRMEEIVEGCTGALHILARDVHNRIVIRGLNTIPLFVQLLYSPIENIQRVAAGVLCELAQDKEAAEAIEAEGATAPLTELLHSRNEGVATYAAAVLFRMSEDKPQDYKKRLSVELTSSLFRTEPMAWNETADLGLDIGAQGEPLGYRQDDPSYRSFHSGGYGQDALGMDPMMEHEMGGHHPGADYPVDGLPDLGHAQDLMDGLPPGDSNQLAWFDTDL
Procedure: (§1) 4. Preparation and testing of mutants of β-catenin modulating the interaction with LEF-1, APC, conductin or E-cadherin The mutagenesis of β-catenin in the armadillo repeats 3–8 was carried out by means of the "mutagenesis kit" of the company Clontech according to the producer's record and the mutants were checked by sequencing (FIG. 5). In all mutants the original amino acid was substituted by alanine. For analyzing the interactions the cDNA of human β-catenin (armadillo repeat 3 up to the C-terminal end of the protein) coding for the amino acids Leu218–Leu7 µl or its mutants was cloned into the fusion vector for the activation domain of Gal-4 (pGAD424, Clontech). The cDNA for the binding domains of the interaction partners was cloned into the Lex-A fusion vector BTM 116. To this end, the cDNA of LEF-1 for the amino acids 1–99, conductin for the amino acids Ala342–ARG465; of human APC for the amino acids His1012–Glu1215 (APC 15 amino acid repeats) and for the amino acids Ser1259Asp 1400 (APC 20 amino acid repeats) and E-cadherin for the amino acids Gin773–Asp884 (cytoplasmatic domain) were amplified with the respective primers PCR. The interaction of the Lex-A hybrids with β-catenin and its mutants was quantified by means of the β-galactosidase reporter activity in the yeast 2-hybrid system (report: "Matchmaker". Clontech) (Tab. 2 and FIG. 6).

[2] = biological target: T2, human β-catenin (Leu218-Leu781) mutant Arg 342 to alanine, Gal-4 activation domain fusion (human, UniProt P35222 218-781)
T2 sequence: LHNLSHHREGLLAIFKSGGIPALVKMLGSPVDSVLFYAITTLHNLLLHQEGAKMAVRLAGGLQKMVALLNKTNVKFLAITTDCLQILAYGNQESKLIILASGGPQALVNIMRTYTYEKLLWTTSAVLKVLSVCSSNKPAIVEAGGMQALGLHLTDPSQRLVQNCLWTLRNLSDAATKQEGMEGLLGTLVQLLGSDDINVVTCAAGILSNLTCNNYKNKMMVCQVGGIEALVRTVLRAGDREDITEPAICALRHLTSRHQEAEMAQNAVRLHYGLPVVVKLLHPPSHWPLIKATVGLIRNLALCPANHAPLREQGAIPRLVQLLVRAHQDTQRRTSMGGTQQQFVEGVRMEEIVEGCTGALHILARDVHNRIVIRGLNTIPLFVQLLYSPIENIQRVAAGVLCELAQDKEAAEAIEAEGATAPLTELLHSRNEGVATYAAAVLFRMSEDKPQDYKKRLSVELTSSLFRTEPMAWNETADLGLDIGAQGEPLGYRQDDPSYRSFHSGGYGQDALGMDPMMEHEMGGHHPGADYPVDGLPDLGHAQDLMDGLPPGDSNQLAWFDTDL
Procedure: as §1

[3] = biological target: T3, human β-catenin (Leu218-Leu781) mutant Lys 292 to alanine, Gal-4 activation domain fusion (human, UniProt P35222 218-781)
T3 sequence: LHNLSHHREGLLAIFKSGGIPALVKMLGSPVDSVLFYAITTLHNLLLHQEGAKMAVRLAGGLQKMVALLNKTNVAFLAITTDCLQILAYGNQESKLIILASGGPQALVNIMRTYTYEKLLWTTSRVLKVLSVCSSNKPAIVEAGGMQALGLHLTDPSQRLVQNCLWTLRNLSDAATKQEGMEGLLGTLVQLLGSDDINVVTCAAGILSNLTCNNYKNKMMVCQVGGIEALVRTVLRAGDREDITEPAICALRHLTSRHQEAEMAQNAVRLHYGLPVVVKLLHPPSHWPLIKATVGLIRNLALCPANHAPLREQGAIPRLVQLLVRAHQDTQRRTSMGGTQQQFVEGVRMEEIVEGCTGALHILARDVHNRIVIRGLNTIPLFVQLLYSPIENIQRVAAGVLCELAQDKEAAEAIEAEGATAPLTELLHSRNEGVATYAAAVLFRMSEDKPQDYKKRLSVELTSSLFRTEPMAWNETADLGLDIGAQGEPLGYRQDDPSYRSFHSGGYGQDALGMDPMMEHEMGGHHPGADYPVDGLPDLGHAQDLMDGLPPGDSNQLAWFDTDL
Procedure: as §1

binding result [1]: binds | binding result [2]: binds | binding result [3]: binds
B1: LEF-1 amino acids 1-99 fused to Lex-A (vector BTM 116) (other, UniProt P0A7C2 1-202, looked up)
chain: MKALTARQQEVFDLIRDHISQTGMPPTRAEIAQRLGFRSPNAAEEHLKALARKGVIEIVSGASRGIRLLQEEEEGLPLVGRVAAGEPLLAQQHIEGHYQVDPSLFKPNADFLLRVSGMSMKDIGIMDGDLLAVHKTQDVRNGQVVVARIDDEVTVKRLKKQGNKVELLPENSEFKPIVVDLRQQSFTIEGLAVGVIRNGDWLMPQLSGGGGGGDPELCATDEMIPFKDEGDPQKEKIFAEISHPEEEGDLADIKSSLVNESEIIPASNGHEVVRQAPSSQEPYHDKAREHPDEGKHPDGGL
notes: Order of the fusion follows the vector; also called LEF-1/TCF-4
